Test results: patent US20180214568A1

Assays:
[1] = biological target: CD56 on the surface of human neuroblastoma cells (human) (UniProt P13591); assay: flow cytometry, isotype control staining of SKNAS cells
[2] = biological target: CD56 on the surface of human neuroblastoma cells (human) (UniProt P13591); assay: flow cytometry, isotype control staining of Kelly cells
[3] = biological target: CD56 on the surface of human neuroblastoma cells (human) (UniProt P13591); assay: flow cytometry, MY31 staining of SKNAS cells after overnight treatment with 50 nM m906 (remaining surface CD56)
[4] = biological target: CD56 on the surface of human neuroblastoma cells (human) (UniProt P13591); assay: flow cytometry, MY31 staining of Kelly cells after overnight treatment with 25 nM control IgG
[5] = biological target: CD56 on the surface of human neuroblastoma cells (human) (UniProt P13591); assay: flow cytometry, MY31 staining of SKNAS cells after overnight treatment with 12.5 nM m906 (remaining surface CD56)
[6] = biological target: CD56 on the surface of human neuroblastoma cells (human) (UniProt P13591); assay: flow cytometry, MY31 staining of SKNAS cells after overnight treatment with 25 nM control IgG
[7] = biological target: CD56 on the surface of human neuroblastoma cells (human) (UniProt P13591); assay: flow cytometry, MY31 staining of Kelly cells after overnight treatment with 12.5 nM m906 (remaining surface CD56)
[8] = biological target: CD56 on the surface of human neuroblastoma cells (human) (UniProt P13591); assay: flow cytometry, MY31 staining of Kelly cells after overnight treatment with 50 nM m906 (remaining surface CD56)
[9] = biological target: CD56 on the surface of human neuroblastoma cells (human) (UniProt P13591); assay: flow cytometry, MY31 staining of SKNAS cells, untreated
[10] = biological target: CD56 on the surface of human neuroblastoma cells (human) (UniProt P13591); assay: flow cytometry, MY31 staining of SKNAS cells after overnight treatment with 25 nM m906 (remaining surface CD56)
[11] = biological target: CD56 on the surface of human neuroblastoma cells (human) (UniProt P13591); assay: flow cytometry, MY31 staining of Kelly cells, untreated
[12] = biological target: CD56 on the surface of human neuroblastoma cells (human) (UniProt P13591); assay: flow cytometry, MY31 staining of Kelly cells after overnight treatment with 25 nM m906 (remaining surface CD56)

Geometric Mean [1] | Geometric Mean [2] | Geometric Mean [3] | Geometric Mean [4] | Geometric Mean [5] | Geometric Mean [6] | Geometric Mean [7] | Geometric Mean [8] | Geometric Mean [9] | Geometric Mean [10] | Geometric Mean [11] | Geometric Mean [12] | Substance
10700 | 4710 | – | – | – | – | – | – | – | – | – | – | PE Isotype Control (antibody)
– | – | 10300 | 63700 | 10200 | 13300 | 7150 | 6030 | 12500 | 10600 | 53700 | 6420 | anti-CD56 antibody MY31
